Measurements as given in US20250352661A1 (MYTHIC THERAPEUTICS, published 2025).

T1: Human LRRC15 Protein, His Tag (Acro Biosystems) (human, UniProt Q8TF66 22-538, limits assumed)
T1 construct: Bought protein with His tag
T1 sequence (looked up): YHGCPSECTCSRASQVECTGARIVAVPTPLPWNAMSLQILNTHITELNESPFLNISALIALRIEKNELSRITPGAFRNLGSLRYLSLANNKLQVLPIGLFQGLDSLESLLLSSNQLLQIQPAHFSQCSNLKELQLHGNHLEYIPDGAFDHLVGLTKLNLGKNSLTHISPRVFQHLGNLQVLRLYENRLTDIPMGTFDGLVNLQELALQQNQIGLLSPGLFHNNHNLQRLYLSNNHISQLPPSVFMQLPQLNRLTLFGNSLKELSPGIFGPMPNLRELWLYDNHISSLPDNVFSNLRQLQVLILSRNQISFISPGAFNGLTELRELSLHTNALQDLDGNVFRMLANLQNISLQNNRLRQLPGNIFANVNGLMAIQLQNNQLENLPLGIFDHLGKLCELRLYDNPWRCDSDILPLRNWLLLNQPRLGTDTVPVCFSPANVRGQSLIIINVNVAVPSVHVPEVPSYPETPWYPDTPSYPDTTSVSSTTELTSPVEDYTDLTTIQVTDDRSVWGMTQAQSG

B1: MYT8413 (antibody, V domains shown)
VH: EVQLVESGGGLVQPGGSLRLSCTASGLDFRRTNYICWVRQAPGKGLEWVGCIYIADVVHYYASWAKGRFTFSRDTSKNTVYLQMNSLRAEDTAVYYCARGADGGFVYGMDLWGQGTLVTVSS
VL: EIVMTQSPSTLSASVGDRVIITCQASQSIHNYLSWYQQKPGKAPKRLIYSASTLPSGVPSRFSGSGSGAEFTLTISSLQPDDFATYYCQNNYWLAGYGHPFGQGTKLTVL
notes: hu15G7 VL G30H; human Fc
B2: MYT8414 (antibody, V domains shown)
VH: EVQLVESGGGLVQPGGSLRLSCTASGLDFRRTNYICWVRQAPGKGLEWVGCIYIADVVHYYASWAKGRFTFSRDTSKNTVYLQMNSLRAEDTAVYYCARGADGGFVYGMDLWGQGTLVTVSS
VL: EIVMTQSPSTLSASVGDRVIITCQASQSIGNHLSWYQQKPGKAPKRLIYSASTLPSGVPSRFSGSGSGAEFTLTISSLQPDDFATYYCQNNYWLAGYGHPFGQGTKLTVL
notes: hu15G7 VL Y32H; human Fc
B3: MYT8418 (antibody, V domains shown)
VH: EVQLVESGGGLVQPGGSLRLSCTASGLDFRRTNYICWVRQAPGKGLEWVGCIYIADVVHYYASWAKGRFTFSRDTSKNTVYLQMNSLRAEDTAVYYCARGADGGFVYGMDLWGQGTLVTVSS
VL: EIVMTQSPSTLSASVGDRVIITCQASQSIHNHLSWYQQKPGKAPKRLIYSASTLPSGVPSRFSGSGSGAEFTLTISSLQPDDFATYYCQNNYWLAGYGHPFGQGTKLTVL
notes: hu15G7 VL G30H, Y32H; human Fc
B4: MYT8419 (antibody, V domains shown)
VH: EVQLVESGGGLVQPGGSLRLSCTASGLDFRRTNYICWVRQAPGKGLEWVGCIYIADVVHYYASWAKGRFTFSRDTSKNTVYLQMNSLRAEDTAVYYCARGADGGFVYGMDLWGQGTLVTVSS
VL: EIVMTQSPSTLSASVGDRVIITCQASQSIHNYLSWYQQKPGKAPKRLIYSASTLPSGVPSRFSGSGSGAEFTLTISSLQPDDFATYYCQNNHWLAGYGHPFGQGTKLTVL
notes: hu15G7 VL G30H, Y92H; human Fc
B5: MYT8420 (antibody, V domains shown)
VH: EVQLVESGGGLVQPGGSLRLSCTASGLDFRRTNYICWVRQAPGKGLEWVGCIYIADVVHYYASWAKGRFTFSRDTSKNTVYLQMNSLRAEDTAVYYCARGADGGFVYGMDLWGQGTLVTVSS
VL: EIVMTQSPSTLSASVGDRVIITCQASQSIHNYLSWYQQKPGKAPKRLIYSASTLPSGVPSRFSGSGSGAEFTLTISSLQPDDFATYYCQNNYHLAGYGHPFGQGTKLTVL
notes: hu15G7 VL G30H, W93H; human Fc
B6: MYT8421 (antibody, V domains shown)
VH: EVQLVESGGGLVQPGGSLRLSCTASGLDFRRTNYICWVRQAPGKGLEWVGCIYIADVVHYYASWAKGRFTFSRDTSKNTVYLQMNSLRAEDTAVYYCARGADGGFVYGMDLWGQGTLVTVSS
VL: EIVMTQSPSTLSASVGDRVIITCQASQSIHNYLSWYQQKPGKAPKRLIYSASTLPSGVPSRFSGSGSGAEFTLTISSLQPDDFATYYCQNNYWLAHYGHPFGQGTKLTVL
notes: hu15G7 VL G30H, G96H; human Fc
B7: MYT8422 (antibody, V domains shown)
VH: EVQLVESGGGLVQPGGSLRLSCTASGLDFRRTNYICWVRQAPGKGLEWVGCIYIADVVHYYASWAKGRFTFSRDTSKNTVYLQMNSLRAEDTAVYYCARGADGGFVYGMDLWGQGTLVTVSS
VL: EIVMTQSPSTLSASVGDRVIITCQASQSIGNHLSWYQQKPGKAPKRLIYSASTLPSGVPSRFSGSGSGAEFTLTISSLQPDDFATYYCQNNHWLAGYGHPFGQGTKLTVL
notes: hu15G7 VL Y32H, Y92H; human Fc
B8: MYT8423 (antibody, V domains shown)
VH: EVQLVESGGGLVQPGGSLRLSCTASGLDFRRTNYICWVRQAPGKGLEWVGCIYIADVVHYYASWAKGRFTFSRDTSKNTVYLQMNSLRAEDTAVYYCARGADGGFVYGMDLWGQGTLVTVSS
VL: EIVMTQSPSTLSASVGDRVIITCQASQSIGNHLSWYQQKPGKAPKRLIYSASTLPSGVPSRFSGSGSGAEFTLTISSLQPDDFATYYCQNNYHLAGYGHPFGQGTKLTVL
notes: hu15G7 VL Y32H, W93H; human Fc
B9: MYT8424 (antibody, V domains shown)
VH: EVQLVESGGGLVQPGGSLRLSCTASGLDFRRTNYICWVRQAPGKGLEWVGCIYIADVVHYYASWAKGRFTFSRDTSKNTVYLQMNSLRAEDTAVYYCARGADGGFVYGMDLWGQGTLVTVSS
VL: EIVMTQSPSTLSASVGDRVIITCQASQSIGNHLSWYQQKPGKAPKRLIYSASTLPSGVPSRFSGSGSGAEFTLTISSLQPDDFATYYCQNNYWLAHYGHPFGQGTKLTVL
notes: hu15G7 VL Y32H, G96H; human Fc
B10: MYT8425 (antibody, V domains shown)
VH: EVQLVESGGGLVQPGGSLRLSCTASGLDFRRTNYICWVRQAPGKGLEWVGCIYIADVVHYYASWAKGRFTFSRDTSKNTVYLQMNSLRAEDTAVYYCARGADGGFVYGMDLWGQGTLVTVSS
VL: EIVMTQSPSTLSASVGDRVIITCQASQSIGNYLSWYQQKPGKAPKRLIYSASTLPSGVPSRFSGSGSGAEFTLTISSLQPDDFATYYCQNNHHLAGYGHPFGQGTKLTVL
notes: hu15G7 VL Y92H, W93H; human Fc
B11: MYT8426 (antibody, V domains shown)
VH: EVQLVESGGGLVQPGGSLRLSCTASGLDFRRTNYICWVRQAPGKGLEWVGCIYIADVVHYYASWAKGRFTFSRDTSKNTVYLQMNSLRAEDTAVYYCARGADGGFVYGMDLWGQGTLVTVSS
VL: EIVMTQSPSTLSASVGDRVIITCQASQSIGNYLSWYQQKPGKAPKRLIYSASTLPSGVPSRFSGSGSGAEFTLTISSLQPDDFATYYCQNNHWLAHYGHPFGQGTKLTVL
notes: hu15G7 VL Y92H, G96H; human Fc
B12: MYT8427 (antibody, V domains shown)
VH: EVQLVESGGGLVQPGGSLRLSCTASGLDFRRTNYICWVRQAPGKGLEWVGCIYIADVVHYYASWAKGRFTFSRDTSKNTVYLQMNSLRAEDTAVYYCARGADGGFVYGMDLWGQGTLVTVSS
VL: EIVMTQSPSTLSASVGDRVIITCQASQSIGNYLSWYQQKPGKAPKRLIYSASTLPSGVPSRFSGSGSGAEFTLTISSLQPDDFATYYCQNNYHLAHYGHPFGQGTKLTVL
notes: hu15G7 VL W93H, G96H; human Fc
B13: MYT8429 (antibody, V domains shown)
VH: EVQLVESGGGLVQPGGSLRLSCTASGLDFRRTNYICWVRQAPGKGLEWVGCIYIADVVHYYASWAKGRFTFSRDTSKNTVYLQMNSLRAEDTAVYYCARGADGGFVYGMDLWGQGTLVTVSS
VL: EIVMTQSPSTLSASVGDRVIITCQASQSIHNHLSWYQQKPGKAPKRLIYSASTLPSGVPSRFSGSGSGAEFTLTISSLQPDDFATYYCQNNYHLAGYGHPFGQGTKLTVL
notes: hu15G7 VL G30H, Y32H, W93H; human Fc
B14: MYT8430 (antibody, V domains shown)
VH: EVQLVESGGGLVQPGGSLRLSCTASGLDFRRTNYICWVRQAPGKGLEWVGCIYIADVVHYYASWAKGRFTFSRDTSKNTVYLQMNSLRAEDTAVYYCARGADGGFVYGMDLWGQGTLVTVSS
VL: EIVMTQSPSTLSASVGDRVIITCQASQSIHNHLSWYQQKPGKAPKRLIYSASTLPSGVPSRFSGSGSGAEFTLTISSLQPDDFATYYCQNNYWLAHYGHPFGQGTKLTVL
notes: hu15G7 VL G30H, Y32H, G96H; human Fc
B15: MYT8431 (antibody, V domains shown)
VH: EVQLVESGGGLVQPGGSLRLSCTASGLDFRRTNYICWVRQAPGKGLEWVGCIYIADVVHYYASWAKGRFTFSRDTSKNTVYLQMNSLRAEDTAVYYCARGADGGFVYGMDLWGQGTLVTVSS
VL: EIVMTQSPSTLSASVGDRVIITCQASQSIHNYLSWYQQKPGKAPKRLIYSASTLPSGVPSRFSGSGSGAEFTLTISSLQPDDFATYYCQNNHHLAGYGHPFGQGTKLTVL
notes: hu15G7 VL G30H, Y92H, W93H; human Fc

Molecular target: T1, Human LRRC15 Protein, His Tag (Acro …)
Experiment: BLI; dissociation pH 7.4 black, pH 5.4 grey [D00010 FIG. 1H]
From the text: For each individual plot, antigen binding proteins were captured on anti-human Fc biosensors and associated with LRRC15 at pH 7.4. Dissociation was at pH 7.4 (black) or pH 5.4 (grey). Major X-axis ticks=100 seconds, with left dashed vertical line=0 seconds. Major Y-axis ticks=0.5 nm and octet plots are shown MYT5712 and MYT6080-MYT6121.
Multiple LRRC15-binding monoclonal antibodies have been described in the literature and can be used as a template for engineering pH-dependent binding. We selected discovery RabMAb clone 15G7 (rabbit VH SEQ ID NO: 378, rabbit VL SEQ ID NO: 451; humanized VH SEQ ID NO: 382, humanized VL SEQ ID NO: 455) as a LRRC15-binding monoclonal antibody for pH-engineering via histidine scanning. […] To generate pH-dependent sequence variants, individual amino acid residues within the heavy chain CDRs were systematically substituted with a histidine (or alanine if H was already present in a given position; e.g., MYT6099), one at a time (rabbit, MYT6080-6121). Desirable mutations were transferred to a humanized framework (humanized, MYT 8387-8411). After allowing for four days of protein expression, cell culture supernatants were collected, quantified by SDS-PAGE analysis, and the pH dependence of the variant was evaluated using biolayer interferometry (BLI) on an Octet RED 96e instrument. Briefly, cell culture supernatants were diluted based on qualitative expression level of the variant determined by visual examination of SDS-PAGE gels, 5 μL of cell culture supernatant was diluted into 195 μL of 1×PBST, pH 7.4 for high expressors, 25 μL of cell culture supernatant was diluted into 175 μL of 1×PBST, pH 7.4 for medium expressors and 100 μL of cell culture supernatant was diluted into 100 μL of 1×PBST, pH 7.4 for low expressors for loading onto the sensor tips.

| Binder | binding result |
| --- | --- |
| B1 | binds |
| B2 | binds |
| B3 | binds |
| B4 | binds |
| B5 | binds |
| B6 | binds |
| B7 | binds |
| B8 | no binding (tested: 50 nM LRRC15) |
| B9 | binds |
| B10 | binds |
| B11 | binds |
| B12 | binds |
| B13 | no binding (tested: 50 nM LRRC15) |
| B14 | binds |
| B15 | binds |
